Assay: soluble on expression in E. coli; label from the status in PepcDB or PDB records

| Sequence | soluble on expression in E. coli |
| --- | --- |
| MEKIAVVGAGITGLFTAYYLSASGFDVEVFDKGDIASGTSGKFHGMLHSGARYAVTDKVSASECISENNTISSFARWFINDTGGYFVSSNREESDYGDTLTKACNDAGIPNYDIDVDEFKKIEPNVKNVDRVIHVPDKVIRAYEFSAAVAAEAFMNGTKFRLYSPVASVSEKGGKYVLGIERNGSLHYEHFDLIVNATGPFSGEFLKLAGYGGSPVMPSAGIMVVFSKPIVRSIINRMREPSDADIMVPYDGLSILGTSAVIVDDPENFSIDSEDVEAMIEDMSSLIPLIRNVNYSRTYYSVRPLLEDEGDDARKASRSFRIIKNGEGVFTVVGGKFTTGRLIGEHVAKEISKETGATIRIENPDLNSTYERFIEKYGRDDKYIAKAMSRIGTIDEENAMRSVAYAISTIIEGSLEHHHHHH | not soluble |
| MPSYKLTYFNARGYGEAARILFHLADVPFEDFRMTHGDGTWEKLKEKTPLGQVPVLSVDGFEIPQSAAIIRYLANKFGYAGKTPEEQAWADAIVDQFKDFMGSFREVGKAHAAGKPAEEIAKIMQSDVVPARDAFFVIINGILEKSKSGFLVGDGLTFADIVVVECITTLDKNQLFTPAGEPKLVALREKVYAIPAIKKWVEIRPDTQY | not soluble |
| MGSDKIHHHHHHMFGYVLPLRGELKVKDYEKFKSYYCGLCLSIKKNYGNLPRSVLNYDMTFLAVLLDALEDKKCEFRLNRCIAHPYKKKYAIINNKALDYAAFFNICLVYYKLVDDVNDDKKISSKIKSLLLRGYFKKFPKPFYVYSDYIKSSLTELNKLEKKSNNLTLDEISHPFSDLTAFIISSYADNKPYKDILYNIGYNLGKWIYIMDAYDDLKEDIKLKKFNAINNTMNLDDKPYEDLIKDISPKISFVLSMCGSNCLHNLNLLPLKTNQDILFNILQYGLLDKMNNLNL | not soluble |
| MAFNDCFSLNYPGNPCPGDLIEVFRPGYQHWALYLGDGYVINIAPVDGIPASFTSAKSVFSSKALVKMQLLKDVVGNDTYRINNKYDETYPPLPVEEIIKRSEFVIGQEVAYNLLVNDCEHFVTLLRYGEGVSEQANRAISTVEFVTAAVGVFSFLGLFPKGQRAKYY | not soluble |
| MGSDKIHHHHHHMTEVISTQSVVDLAAIAEKFAFPGTVTNVQAFGSGNINDTFLVTVDSLEAQHFILQRINTLVFRQPELIMQNMRIFSDHVYQRLQYAPPSRRWEVPRILSTKDNHDYCTDTQGNFWRAISFISGSQSFDTMQDLAQAQEIGYALGMFHNLISDLSPEKLADTLVGFHITPLYLRHYEQVLATAKPQPSPELDYCLQFVSDRQSYACILENAKAAGELPLRLMHGDPKINNIMFDTVTHKAVSVIDLDTVKPGLVHYDIGDCLRSGCNHAGEETEHWESVAFDTDLCQGILQGYLSVAKDFLTENDYAYMYDAIRLIAFELGLRFFADYLAGNVYFKIKYPEHNLARALVQFKLTESIESQEIKIRKIIQDIK | not soluble |
| GPGSMRSAQLPSKLSSAAGSCKHWVVSVPNSSESYRCFCSLIDRALQPGTCHPYSVRFRLEHLLPADWSLLLGWCRRLTSCGGSFTYTSPGDISEQTESVGAVDDSEGHPAVVNAAFMHVVERCHGDFVPNNMIYHELQRRYTVYAPASPPPPEGPEDFTSFLGALQDSVCDGCLASLSEGDGNVGEDPLASQVPSLEATKHNQKVLGVGAAASMESEAHRQQGELLFNFFPHRVVVSDGIPCHSTHFVVMVNLKPVVPWHLMVVPIRCVGTLSALSAAEMEDLGHMIHLTISVLSHVLVKPAVTGTGDTSSNGGSRVERGCSPHSIGSPVPASVVGGGGFSIAIQQGELAGQTVPHLHVHVIPFDPRGKLAGEPEDEEQQRRQPPRTGAQMRKETEFLRPHFVRLANEKNMRGICATCG | not soluble |
| MAGAMIEARGLVKRFVSGRIRRRVVEALKGVSFSVYEGEIYSFLGPNGAGKTTTVRILSTLLDPDGGEARVAGFDVVKERWEVRKRIGVMLSVERGFYWKLTGRENLYYFGRIYGIPQGELKSRIKEVLDLVGLTDLGGADKPFEEMSLGMKARLGLARVLLKDPEVLILDEPTLGLDPASARTIRGVIRSLASEGRTIFITTHNMVEAEMISDRVGIIIGGRIAMEGTPDELKRRVFSSINLEFRVKASGHAAKKFFYDVKGEYGNRIVGGVTFSDGILTFRVSVNRDEPAEPIIDRITRLAYQYRFKILEIKALEPSLEDVFVAVSESGEARSGRVKGSIAQRLEHHHHHH | soluble |
| MIIKVIPVGPIAVNCSVVADEKSGEAIIIDPGAEAEKILEAVKDFKVVGIVATHGHIDHVGQVGKLKELFDVPFYMNPLDKFLINDEIWSGFASYIGAVPCPEPDVEISEGDVIRVGDVEFKVLHTPGHTPGLCCLYEEKRRVLIAGDLLFKGSVGRWDLPGGNLVELKKSVKRVLTELPQDTLVICGHYDETTIGQERAFNPFAGELLNG | soluble |
| MSLTEHALSNARIVLEDDIILGSVLIRDGKIADISEGASKTGEDLEGDFLIPGLVELHTDHLEQHYSPRPGVIWDKIAAIQAHDAQVASSGITTVFDCLRLGSDEDGGFKKGEMREMADAIEAAADQNRLRADHLLHLRCEVASADVLEHFEDFETDPRVRLISLMDHSPGQRQFQSMDQYIFYYQKKRGLSDEAFAEFVRRRQAASAEYSAKHRDYLAASCAKRGITVASHDDATEAHVGEAIGHGVKLAEFPTSVEAAKASHSAGMSVLMGAPNIVRGKSHSGNIAARDLAEIGVLDVLSSDYVPFSLLFAPFLLADQVEAISLSEALRMVTATPARTVGLVDRGRIATGLRADLVRVHREDGVPVARSVWRQGKRVAEGHHHHHH | not soluble |
| NQKDFDRTMVIDERTELVARTITDYLKRTNPMDKTIVFCNDIDHAERMRRALVNLNPEQVKKNDKYVMKITGDDEIGKAQLDNFINPKKPYPVIATTSELMTTGVDAKTCKLVVLDQNIQSMTKFKQIIGRGTRIDERYGKLWFTILDFKKATELFADERFDGIPEKVMDTTPEDIAD | not soluble |
| MAHHHHHHMGRSFKVFLSNYVYRYGAAVWELRVCIERCAFPDYYAASPHDCAASSHYHAAYPPRSCSECGNHLSDPTELVSTSFRGRTGPAWLFSKVINVCEGQYEDRMMTTGQHTIVDIYCNNCRNNVGWKYEDSSEESQKYKKGKYILEKALLSFLVIDQHGKEHEFELKSSDCDF | not soluble |
| MSLSFELNPIFKRPSVSRELTKRFFFSANNGTRIILFQDSTIRWSFSSDNDHYQSMALRDSDMDVTGAIISDPGDYLCLYNSHQIRVIEIPWGLTNVDEISNSMASSLQERVYNFNEDKLSVKQVLFHPLSKSSPFLVVLFSGSQIAFVDLKNVFKSSDIPIDCFLNLTDSNVMGIDNRVENIQYVVFADDCLSLYSLTDTDVYCFYPCLPPVASLSKNRVDELINKSIVLYENLGIDADDIVRKNVIKQLQLASSLRKKIEEFENANGEVEVNVEIDLEFRQTKAQGYFSISPYPESLYTCTGKQISVLPIGEGNELFLVSFDNGTVLVVFKDKESTMSWDVNDYSFNNSFTLVEIIKFKPEELSNMVVLQGELGKFVVSGEKSTILVDTTKWSSVISKCIRDNDLRPLVGLEMKSTITHINSDMQINSCGIWNSGEAKSLLLVDTNVVVGYQLFKKEVEFKPESAEEISTELENFTLDKFTVPENELKAANYKFQEAVSVPYSKVIPANIKQVPFGSNAMEEQLKILNDISRDVGSKIVQGQSLGLMLYDRLLEQQDKLSEQLIITNKILIRAKKVQGDYPAQLSKLDEKLKKQEHLEKILLKMESNLNTIQESQKLKSLPLSEKEIQLFKELRSQILLFNNFVHKQKDQKQNIQFLKKELQKIIDISRSESSKGMLNEWEELRQILADDAKIIKECNEQLTQISKELDTKNTVTNSEGHHHHHH | soluble |
| MNKTIIAERFSKAISTYPREANVQRQIANKMIRLLQKHIPSPCPKVIEFGCGTGIYSRMLLRTLRPEELLLNDLCPEMRYCCEDLLREKQVSFLSGDAETISFPDKSTLITSCSALQWFDSPEEFFKRCNTLLHSQGYFAFSTFGKKNMKEIRELTGKGLPYRSREELEAALSLHFDILYSEEELIPLSFEDPMKVLYHLKQTGVNGLSAQSSLYPKHEKQTWTRRDLQHFCERYTQEFTQGTSVSLTYHPIYIIAKKKKV | soluble |
| MGSDKIHHHHHHMRDQQLFLFGGGPPFTPMLCRQFVSCLKQSGPVALLYVPRPGSNWDDYAPIYTDALTANGVTDFFHFPLSARPTSEQLEQLAGSAGIIISGGETERYQQFIVGTPIGTIIQERFQHGVPVAGFSAGALLTPDECRIPVIDQRNGQALVLKGLGLLTDAVISVHYDTWQEETNLSDAFMKTASNFGYGLPERSGIHLKNGQLMQQEGPEVVLLRQKGEYI | not soluble |
| MDEQEFRKQLTLKPVEEEHIDQFNELLSYVFQVTEADIEESGFENKRAFIKSKQPILELSKVFGWFHENQLISQIAIYPCEVNIHGALYKMGGVTGVGTYPEYANHGLMKDLIQTALEEMRQDKQWISYLFPYNIPYYRRKGWEIMSDKLSFKIRDTQLPKTVPVPGMIERLAVDHPDVFDVYARFARQNHGALIRSAFNWEEYWRFENEEERTAAVYYGANQEPLGVLFYWVADEVFHIKEMFYLNQEARNGLWNFITAHFSMVYWVKGDIYKNEPLAFLLEDSQIKESIEPYYMARIVDVKAFLENFPFESTAKPFHFVVKDPVAEWNNGIFGLIWDENDQVTITDEPLGTAVHLDIQTLTCLVMNYRRPSYLHRIERIDTDKETLNSLERIFPDQEAYFSDYF | soluble |
| MGEENQPNYTISQENWSLHRKGYDDQQRHQEKVQEAIKNNLPDLVTEESIVMSNGKDVVKIPIRSLDEYKIRYNYDKNKHVGQGNGDSKVGDVVARDGSGGQKQKGPGKGQGAGDAAGEDYYEAEVSILELEQAFFRELELPNLKRKEMDENRIEHVEFNDIRKTGLWGNIDKKRTMISAYKRNAMGGKASFHPIHQEDLKFRTWNEVLKPDSKAVVLAMMDTSGSMGIWEKYMARSFFFWMTRFLRTKYETVDIEFIAHHTEAKVVTEEEFFSKGESGGTICSSVYKKALELIDNKYSPDRYNIYPFHFSDGDNLTSDNARCVKLVEELMKKCNMFGYGEVNQYNRHSTLMSAYKNIKDENFRYYILKQKADVFHAMKSFFREESGEKMALEHHHHHH | soluble |
| MAHHHHHHMVEAQRGYNCVWHSWPPPLQGVNKHFNSCAASPLPLQLLVGNRILLITKDPPLKVIKFFNEFQPEEYIKPGNICTQNVTLKFGDVLNVPVSMQKDLQKRKVTFDIVDQKIVIRKDKVLAEKDKLVSAENAKLLRMLNMKIANFDITVLGYWNVNKFVSLM | soluble |
| MKRKTKIVSTIGPASESVDKLVQLMEAGMNVARLNFSHGDHEEHGRRIANIREAAKRTGRTVAILLDTKGPEIRTHNMENGAIELKEGSKLVISMSEVLGTPEKISVTYPSLIDDVSVGAKILLDDGLISLEVNAVDKQAGEIVTTVLNGGVLKNKKGVNVPGVKVNLPGITEKDRADILFGIRQGIDFIAASFVRRASDVLEIRELLEAHDALHIQIIAKIENEEGVANIDEILEAADGLMVARGDLGVEIPAEEVPLIQKLLIKKSNMLGKPVITATQMLDSMQRNPRPTRAEASDVANAIFDGTDAVMLSGETAAGQYPVEAVKTMHQIALRTEQALEHRDILSQRTKESQTTITDAIGQSVAHTALNLDVAAIVTPTVSGKTPQMVAKYRPKAPIIAVTSNEAVSRRLALVWGVYTKEAPHVNTTDEMLDVAVDAAVRSGLVKHGDLVVITAGVPVGETGSTNLMKVHVISDLLAKGQGIGRKSAFGKAVVAKTAEEARQKMVDGGILVTVSTDADMMPAIEKAAAIITEEGGLTSHAAVVGLSLGIPVIVGVENATTLFKDGQEITVDGGFGAVYRGHASVL | soluble |
